In paper PMC3827224 one finds decrease of rhodamine-fibronectin incorporation into the extracellular matrix of HDF fibroblasts (fluorescence plate assay), 500 nM bead-immobilized peptide, after 12 and 24 hours data, which are given here for two substances.

The target in the experiment is rhodamine-labelled fibronectin from human plasma (human).

Substance “F1 functional upstream domain (FUD) peptide of Streptococcus pyogenes F1 (domain or fragment)” displayed a decrease of rhodamine-fibronectin incorporation into the extracellular matrix of HDF fibroblasts (fluorescence plate assay), 500 nM bead-immobilized peptide, after 12 and 24 hours of 80%.

The substance “FnBPA-derived peptide containing fibronectin-binding repeats 1-11 (FnBR1-11) (domain or fragment)” yielded a decrease of rhodamine-fibronectin incorporation into the extracellular matrix of HDF fibroblasts (fluorescence plate assay), 500 nM bead-immobilized peptide, after 12 and 24 hours of 90%.
